Measurements as given in patent US8530621B2, “Combined preparation of a thiazide diuretic and a loop diuretic” (The Regents of the University of California, priority 2007, dated 2013).
Changes are numbered by the printed parent chain. Names may count otherwise.

B1: DOK1: PTB-containing protein, full-length DOK1, transfected into αβPy cells (protein)
chain: MDGAVMEGPLFLQSQRFGTKRWRKTWAVLYPASPHGVARLEFFDHKGSSSGGGRGSSRRLDCKVIRLAECVSVAPVTVETPPEPGATAFRLDTAQRSHLLAADAPSSAAWVQTLCRNAFPKGSWTLAPTDNPPKLSALEMLENSLYSPTWEGSQFWVTVQRTEAAERCGLHGSYVLRVEAERLTLLTVGAQSQILEPLLSWPYTLLRRYGRDKVMFSFEAGRRCPSGPGTFTFQTAQGNDIFQAVETAIHRQKAQGKAGQGHDVLRADSHEGEVAEGKLPSPPGPQELLDSPPALYAEPLDSLRIAPCPSQDSLYSDPLDSTSAQAGEGVQRKKPLYWDLYEHAQQQLLKAKLTDPKEDPIYDEPEGLAPVPPQGLYDLPREPKDAWWCQARVKEEGYELPYNPATDDYAVPPPRSTKPLLAPKPQGPAFPEPGTATGSGIKSHNSALYSQVQKSGASGSWDCGLSRVGTDKTGVKSEGST
B2: L325R: HA-tagged mouse talin F23 (residues 206-405) mutant L325R expressed by transfection (protein, UniProt P26039 206-405, looked up, variant L325R)
chain: SRDPVQLNLLYVQARDDILNGSHPVSFDKACEFAGFQCQIQFGPHNEQKHKAGFLDLKDFLPKEYVKQKGERKIFQAHKNCGQMSEIEAKVRYVKLARSLKTYGVSFFLVKEKMKGKNKRVPRLLGITKECVMRVDEKTKEVIQEWSLTNIKRWAASPKSFTLDFGDYQDGYYSVQTTEGEQIAQLIAGYIDIILKKKKS
modifications: F2-F3 subdomains HA tag
notes: HA-tagged mouse talin F23 (residues 206-405) mutant L325R expressed by transfection
B3: wild type F23: F2 and F3 sub-domains (F23) of talin, residues 206-405, wild type (protein, UniProt P26039 206-405, looked up, fragment)
chain: B2 chain with R120L
modifications: F2-F3 subdomains
notes: F2 and F3 sub-domains (F23) of talin, residues 206-405, wild type
B4: F23(W359A): talin F23 mutant W359A that strongly inhibits the MD binding site (protein)
chain: B2 chain with R120L, W154A
modifications: left off: small tags and cut ends
B5: Q381V: HA-tagged mouse talin F23 (residues 206-405) mutant Q381V expressed by transfection (protein, UniProt P26039 206-405, looked up, variant Q381V)
chain: B2 chain with R120L, Q176V
modifications: F2-F3 subdomains HA tag
notes: HA-tagged mouse talin F23 (residues 206-405) mutant Q381V expressed by transfection
B6: S379R: HA-tagged mouse talin F23 (residues 206-405) mutant S379R expressed by transfection (protein, UniProt P26039 206-405, looked up, variant S379R)
chain: B2 chain with R120L, S174R
modifications: F2-F3 subdomains HA tag
notes: HA-tagged mouse talin F23 (residues 206-405) mutant S379R expressed by transfection
B7: S365D: HA-tagged mouse talin F23 (residues 206-405) mutant S365D expressed by transfection (protein, UniProt P26039 206-405, looked up, variant S365D)
chain: B2 chain with R120L, S160D
modifications: F2-F3 subdomains HA tag
notes: HA-tagged mouse talin F23 (residues 206-405) mutant S365D expressed by transfection

Columns and labels:
[1] = system: αIIbα6β3β1 high-affinity chimeric integrin (αβPy cells); experiment: PAC1 binding by flow cytometry in αβPy cells transfected with talin F23 or DOK1; format: cell-based; conditions: talin-dependent constitutively active chimeric integrin, transient transfection
Description: (§1) A-B. CHO cells were transiently transfected with plasmids encoding αIIb and β3, or mutants thereof. In some samples (indicated above) a plasmid encoding a shRNA for talin-1 (Tadokoro et. al. 2003) or a control shRNA was co-transfected with the integrin plasmids. Cells were double stained for integrin αIIbβ3 expression (B-D57) and activated αIIbβ3 (PAC1) and flow cytometry was used to measure the geometric mean fluorescence intensity (F) of PAC1 binding. Non-specific PAC1 binding (F0) was measured in the presence of a competitive antagonist of αIIbβ3, Ro43-5054 and maximal binding (Fmax) was measured in the presence of the activating antibody Anti-LIBS6. Activation index was defined as 100*(F−F0)/(Fmax−F0) (see Experimental Procedures). A. Activation of αIIb(R995A)β3 integrin was diminished in the cells co-transfected with talin-1 knockdown shRNA. Similarly, the β3(Y747A) mutation blocks talin binding to the MD site and the αIIb(R995A)β3(Y747A) integrin is not activated. B. Talin-mediated activation requires specific contacts between talin F3 and the β3 MP region. Depicted is the Activation Index (gray bars) or the αIIbβ3 expression, indicated as fluorescence intensity of D57 staining (black bars). The activating effect of αIIb(R995A) is diminished when it is paired with the β3 MP mutants β3(F727A) or β3(F730A). C-D. CHO cells stably expressing WT human αIIbβ3 (A5 cells), or a high-affinity chimeric integrin (αβPy cells), were transiently co-transfected with vectors for WT or mutant HA-tagged talin F23 and eGFP protein as a transfection marker. PAC1 binding was measured by flow cytometry in the subset of cells expressing GFP. Insets show representative western blots of cell lysates probed with anti-HA antibody and indicate that WT and mutant HA-talin F23 expressed to similar levels. C. Specific PAC1 binding in αIIbβ3-expressing A5 cells transfected with talin F23 mutants relative to that in cells transfected with wild type talinF23 (set as 100). […] D. PAC1 binding in αIIbα6β3β1-expressing αβPy cells transfected with talin F23 or its mutants relative to that in cells transfected with empty vector (set as 100). The MP-contacting talin F23 mutants (L325R, S365D, S379R, Q381V) inhibited activation, whereas the MD-contacting mutant talin F23(W359A) had no significant effect on activation levels. All data are an average of three of more measurements, error bars are standard deviations.
A. CHO cells stably expressing a high-affinity chimeric integrin (αβPy cells) were transiently co-transfected with empty vector (pCDNA3.1), WT talin F23 or full-length DOK1; eGFP protein was used as a transfection marker. The level of integrin activation was measured by flow cytometry of harvested cells using PAC1 antibody as described in the legend to FIG. 3. Data are an average of three or more measurements; error bars are standard deviations. B. Overlay of the DOK and talin PTB domains. The critical differences between the two domains are the residues between strands S1 and S2. C. Weighted shift map (see Experimental Procedures) obtained by observing ^1H-^15N HSQC spectra on addition of the β3/PIPKIα peptide to the DOK PTB domain (10:1 molar ratio). Grey columns indicate residues whose peaks experienced severe line broadening in the bound state and could not be assigned.
To investigate this possibility we used αβPy cells, a CHO cell-line expressing a talin-dependent constitutively active chimeric integrin composed of the extracellular and transmembrane domains of αIIbβ3 and the cytoplasmic tails of α6β1 (Baker et al., 1997). We transiently transfected αβPy cells with cDNAs encoding the mutant F23 constructs (L325R, S365D, S379R, or Q381V).
For experiments to assess the functional effect of point mutants in the β3 tail, CHO cells were co-transfected with pCDM8 plasmids coding for wildtype or mutant sequences of βIIb and β3. […]

integrin αIIbβ3 = target: T1, integrin αIIbβ3 (Homo sapiens, UniProt P05106+P08514); experiment: PAC1 binding by flow cytometry in A5 cells transfected with talin F23; format: cell-based; conditions: CHO cells stably expressing WT human αIIbβ3 (A5 cells), transient transfection with HA-talin F23
T1 construct: expressed in transfected cells; host or cells: CHO (A5 cells)
Description: as §1
Contacts between talin and the MP region of the β3 cytoplasmic tail may constitute an interaction that is a key to the activation process. To test this concept, the effects of a number of designed mutations, both in the β3 tail and in the talin F3 sub-domain, were investigated. Integrin activation was assessed using the antibody PAC1 and flow cytometry as previously described (Partridge et al., 2005).
For experiments to assess the functional effect of point mutants in the β3 tail, CHO cells were co-transfected with pCDM8 plasmids coding for wildtype or mutant sequences of […] and β3. Transfection was done using the plus reagent and lipofectamine (Life Technologies); 24 hours later cells were stained with B-D57 and PAC1 in the presence and absence of Ro43-5054 or Anti-LIBS6. The biotinylated monoclonal antibody, B-D57 was used to detect expression of αIIbβ3, while PAC1, an activation specific, monoclonal IgM antibody was used to assess the activation state of the αIIbβ3 integrin. This antibody is an authentic ligand for integrin αIIbβ3 (Abrams et al., 1994) and its binding correlates with the binding of natural ligands, such as fibrinogen (Shattil et al., 1985). Cells were analyzed on a FACScan using both B-D57 and PAC1 antibodies as described previously (Partridge et al., 2005). The geometric mean fluorescence intensity (MFI) of PAC1 staining in the presence of Ro43-5054 (2 μM) was used to estimate non-specific PAC1 binding (F0). […]

Molecule	integrin activation (PAC1 binding) [1]	integrin αIIbβ3 activation (PAC1 binding) (integrin αIIbβ3)
B1	inhibited integrin activation	
B2	blocked integrin activation	diminished the ability of F23 to activate integrin αIIbβ3
B3	modestly increased activation	activated the integrin
B4	had no effect on activation	prevent activation
B5	blocked integrin activation	diminished the ability of F23 to activate integrin αIIbβ3
B6	blocked integrin activation	diminished the ability of F23 to activate integrin αIIbβ3
B7	blocked integrin activation	diminished the ability of F23 to activate integrin αIIbβ3
